Where two headings read alike, the source gives them in different places. Where no end group is shown, it is not given here.
Assays:
Test in all cases: cell-based or functional assay
[1] = biological target: T1, Adrenomedullin 1-52-Gly (ADM-Gly) (human, not fully specified)
T1 peptide: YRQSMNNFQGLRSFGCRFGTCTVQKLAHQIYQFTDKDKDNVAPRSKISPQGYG

[2] = biological target: T2, human recombinant adrenomedullin receptor (CRLR+RAMP3) (human)
[3] = biological target: T2, human recombinant adrenomedullin …; remark: listed apart in the source

T2 sequence (Q16602 whole entry, chain 1 of 2): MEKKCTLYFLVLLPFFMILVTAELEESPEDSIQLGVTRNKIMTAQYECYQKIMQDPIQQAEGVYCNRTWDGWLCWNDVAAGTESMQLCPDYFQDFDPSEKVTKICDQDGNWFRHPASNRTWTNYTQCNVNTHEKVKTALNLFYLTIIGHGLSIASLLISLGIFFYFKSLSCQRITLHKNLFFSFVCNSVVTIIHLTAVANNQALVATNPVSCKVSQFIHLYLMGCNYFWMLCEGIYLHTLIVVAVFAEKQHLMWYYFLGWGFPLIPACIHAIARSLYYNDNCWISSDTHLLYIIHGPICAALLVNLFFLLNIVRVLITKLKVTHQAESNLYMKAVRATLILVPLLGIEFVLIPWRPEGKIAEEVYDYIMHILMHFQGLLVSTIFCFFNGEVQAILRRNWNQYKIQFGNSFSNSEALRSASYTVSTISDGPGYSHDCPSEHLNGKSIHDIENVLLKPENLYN
T2 sequence (O60896 whole entry, chain 2 of 2, further chain): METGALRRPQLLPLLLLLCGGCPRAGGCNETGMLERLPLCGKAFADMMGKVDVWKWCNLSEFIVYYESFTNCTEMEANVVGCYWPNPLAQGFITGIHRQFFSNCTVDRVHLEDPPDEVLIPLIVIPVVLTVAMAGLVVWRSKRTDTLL

B1: HAM8101 (antibody, human IgG1, kappa, V domains shown)
VH: QVQLVQSGAEVKKPGSSVKVSCKASGYTFSRYWIEWVRQAPGQGLEWIGEILPGSGSTNYNQKFQGRVTITADTSTSTAYMELSSLRSEDTAVYYCTEGYEYDGFDYWGQGTTVTVSS
VL: DVVLTQSPLSLPVTLGQPASISCRSSQSIVYSNGNTYLEWYLQRPGQSPRLLIYRVSNRFSGVPDRFSGSGSGTDFTLKISRVEAEDVGVYYCFQGSHIPYTFGGGTKLEIKR
formation of bio-ADM from ADM-Gly by native human plasma PAM after 90 minutes, with 300 µg/mL HAM8101 against without [1]: 4 fold

YRQSMNQGSRSNGCRFGTCTFQKLAHQIYQLTDKDKDGMAPRNKISPQGY-NH2 (ends and bridges not checked) [Mouse ADM 1-50]
EC50 (read off the curve), cAMP stimulation [2]: ~80 pM

B2: mature human Adrenomedullin (Human ADM 1-52) (peptide)
peptide: YRQSMNNFQGLRSFGCRFGTCTVQKLAHQIYQFTDKDKDNVAPRSKISPQGY-NH2
modifications: ends and bridges not checked
EC50 (read off the curve), cAMP stimulation [3]: ~1000 pM
